Earlier results, collected in PMC2994244.
Like-named read-outs stand apart in the source and are kept apart here.

What was measured:
ACP (Escherichia coli) [1] = target: ACP (Escherichia coli) (UniProt P0A6A8)
ACP (Escherichia coli) [2] = target: ACP (Escherichia coli) (UniProt P0A6A8); remark: listed apart in the source

UniProt P0A6A8, sequence (P0A6A8 2-78): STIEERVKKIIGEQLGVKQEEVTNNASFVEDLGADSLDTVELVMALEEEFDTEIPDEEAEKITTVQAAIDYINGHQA

Row | Kd (ACP (Escherichia coli) [1]) [nM] | Substance | Kd (ACP (Escherichia coli) [2]) [nM]
1 | 180 | KASI (from UniProt P0A953) | 
2 |  | KASII (from UniProt P0AAI5) | 70
